From paper PMC9482650, “Quantitative fragmentomics allow affinity mapping of interactomes” (Nature Communications, 2022)

How the values were obtained:
Test in all cases: holdup assay
Set-up in all cases: key: below the threshold = too weak to quantify, mostly under pKd 3.1 to 4
ARHGAP21, Q5T5U3 = target: T1, ARHGAP21, Q5T5U3
T1 sequence (Q5T5U3 45-169, limits assumed, looked up): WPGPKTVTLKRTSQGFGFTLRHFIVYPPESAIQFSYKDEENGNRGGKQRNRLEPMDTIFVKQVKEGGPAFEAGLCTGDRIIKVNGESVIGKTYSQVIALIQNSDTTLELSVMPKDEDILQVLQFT

DFNB31_1, Q9P202 = target: T2, DFNB31_1, Q9P202
T2 sequence (Q9P202 135-233, limits assumed, looked up): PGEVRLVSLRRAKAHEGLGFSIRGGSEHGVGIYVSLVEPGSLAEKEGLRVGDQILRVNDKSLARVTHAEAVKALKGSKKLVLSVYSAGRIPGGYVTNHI

DLG2_3, Q15700 = target: DLG2_3, Q15700
FRMPD2_1, Q68DX3 = target: FRMPD2_1, Q68DX3
Sequence of FRMPD2_1, Q68DX3 (Q68DX3 770-861): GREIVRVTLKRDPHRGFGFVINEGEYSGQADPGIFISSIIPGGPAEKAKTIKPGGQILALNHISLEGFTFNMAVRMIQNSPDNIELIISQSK

FRMPD3, Q5JV73 = target: FRMPD3, Q5JV73
Sequence of FRMPD3, Q5JV73 (Q5JV73 12-100): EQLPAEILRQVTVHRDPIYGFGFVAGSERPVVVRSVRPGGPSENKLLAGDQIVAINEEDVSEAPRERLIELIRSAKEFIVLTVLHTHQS

GIPC2, Q8TF65 = target: GIPC2, Q8TF65
Sequence of GIPC2, Q8TF65 (Q8TF65 112-203): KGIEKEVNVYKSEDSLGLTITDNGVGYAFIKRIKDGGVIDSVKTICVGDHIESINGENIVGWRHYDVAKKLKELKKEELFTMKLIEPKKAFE

GORASP2, Q9H8Y8 = target: GORASP2, Q9H8Y8
GRID2IP_2, A4D2P6 = target: GRID2IP_2, A4D2P6
Sequence of GRID2IP_2, A4D2P6 (A4D2P6 272-370): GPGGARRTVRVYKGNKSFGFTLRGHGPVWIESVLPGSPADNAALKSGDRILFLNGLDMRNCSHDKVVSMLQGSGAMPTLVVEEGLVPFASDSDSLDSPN

GRIP1_7, Q9Y3R0 = target: T3, GRIP1_7, Q9Y3R0
T3 sequence (Q9Y3R0 999-1096, limits assumed, looked up): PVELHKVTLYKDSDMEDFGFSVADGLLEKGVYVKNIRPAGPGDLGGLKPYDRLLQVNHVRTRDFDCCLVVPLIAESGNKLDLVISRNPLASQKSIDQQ

HTRA3, P83110 = target: T4, HTRA3, P83110
T4 sequence (P83110 354-453, limits assumed, looked up): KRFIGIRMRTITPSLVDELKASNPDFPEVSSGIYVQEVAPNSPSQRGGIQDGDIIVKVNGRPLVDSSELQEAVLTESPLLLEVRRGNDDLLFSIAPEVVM

Inadl_1, Q8NI35 = target: Inadl_1, Q8NI35
Sequence of Inadl_1, Q8NI35 (Q8NI35 113-229): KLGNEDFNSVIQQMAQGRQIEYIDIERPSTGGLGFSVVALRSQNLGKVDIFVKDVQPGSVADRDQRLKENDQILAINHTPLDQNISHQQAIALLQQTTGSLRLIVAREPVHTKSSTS

Inadl_3, Q8NI35 = target: Inadl_3, Q8NI35
Sequence of Inadl_3, Q8NI35 (Q8NI35 359-469): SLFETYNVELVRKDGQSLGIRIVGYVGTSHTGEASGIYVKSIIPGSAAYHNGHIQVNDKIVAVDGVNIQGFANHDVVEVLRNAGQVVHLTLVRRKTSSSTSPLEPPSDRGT

Inadl_5, Q8NI35 = target: Inadl_5, Q8NI35
Sequence of Inadl_5, Q8NI35 (Q8NI35 673-780): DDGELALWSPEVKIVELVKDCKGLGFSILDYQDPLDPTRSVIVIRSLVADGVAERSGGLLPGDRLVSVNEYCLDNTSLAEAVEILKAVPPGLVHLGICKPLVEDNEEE

LAP2, Q96RT1 = target: LAP2, Q96RT1
Sequence of LAP2, Q96RT1 (Q96RT1 other isoform, or with tags, fused parts or gaps): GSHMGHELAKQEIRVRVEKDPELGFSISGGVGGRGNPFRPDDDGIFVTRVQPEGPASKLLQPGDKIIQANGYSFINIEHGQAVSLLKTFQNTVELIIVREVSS

LIN7C, Q9NUP9 = target: T5, LIN7C, Q9NUP9
T5 sequence (Q9NUP9 88-185, limits assumed, looked up): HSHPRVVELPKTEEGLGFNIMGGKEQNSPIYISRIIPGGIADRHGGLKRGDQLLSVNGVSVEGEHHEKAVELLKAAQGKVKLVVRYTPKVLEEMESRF

LNX2_3, Q8N448 = target: T6, LNX2_3, Q8N448
T6 sequence (Q8N448 463-564, limits assumed, looked up): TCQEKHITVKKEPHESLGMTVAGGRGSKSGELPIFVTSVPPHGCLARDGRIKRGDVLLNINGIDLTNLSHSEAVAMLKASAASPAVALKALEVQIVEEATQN

MPDZ_5, O75970 = target: T7, MPDZ_5, O75970
T7 sequence (O75970 695-796, limits assumed, looked up): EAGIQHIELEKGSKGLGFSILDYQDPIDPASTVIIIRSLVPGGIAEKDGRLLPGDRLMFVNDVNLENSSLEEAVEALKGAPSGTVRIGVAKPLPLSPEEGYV

NHERF2_2, Q15599 = target: NHERF2_2, Q15599
Sequence of NHERF2_2, Q15599 (Q15599 142-238): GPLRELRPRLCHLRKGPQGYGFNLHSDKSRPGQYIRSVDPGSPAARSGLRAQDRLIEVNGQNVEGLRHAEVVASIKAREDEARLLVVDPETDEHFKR

PARD3B_1, Q8TEW8 = target: T8, PARD3B_1, Q8TEW8
T8 sequence (Q8TEW8 196-299, limits assumed, looked up): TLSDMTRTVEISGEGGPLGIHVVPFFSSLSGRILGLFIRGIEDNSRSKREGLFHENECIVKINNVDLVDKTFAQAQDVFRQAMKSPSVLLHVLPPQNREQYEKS

PDZD2_2, O15018 = target: T9, PDZD2_2, O15018
T9 sequence (O15018 329-429, limits assumed, looked up): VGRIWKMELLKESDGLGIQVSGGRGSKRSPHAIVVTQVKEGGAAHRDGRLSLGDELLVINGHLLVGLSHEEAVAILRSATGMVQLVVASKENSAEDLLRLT

SCRIB_2, Q14160 = target: SCRIB_2, Q14160
Sequence of SCRIB_2, Q14160 (Q14160 857-960): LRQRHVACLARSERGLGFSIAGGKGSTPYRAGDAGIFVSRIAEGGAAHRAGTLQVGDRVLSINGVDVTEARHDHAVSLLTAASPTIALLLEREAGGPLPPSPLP

SNTA1, Q13424 = target: T10, SNTA1, Q13424
T10 sequence (Q13424 82-180, limits assumed, looked up): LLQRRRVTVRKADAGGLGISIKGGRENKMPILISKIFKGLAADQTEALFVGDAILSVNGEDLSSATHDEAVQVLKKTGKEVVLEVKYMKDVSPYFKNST

TJP1_2, Q07157 = target: TJP1_2, Q07157
Sequence of TJP1_2, Q07157 (Q07157 181-274): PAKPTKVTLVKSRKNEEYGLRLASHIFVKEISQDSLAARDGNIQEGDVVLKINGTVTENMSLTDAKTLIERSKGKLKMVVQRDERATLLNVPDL

TX1BP3, O14907 = target: T11, TX1BP3, O14907
T11 sequence (O14907 10-122, limits assumed, looked up): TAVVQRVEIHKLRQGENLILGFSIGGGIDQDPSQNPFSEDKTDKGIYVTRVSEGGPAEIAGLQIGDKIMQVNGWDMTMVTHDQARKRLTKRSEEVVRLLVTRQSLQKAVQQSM

GOPC, Q9HD26 = details: plain residues with an end cap or a label only (N-terminal biotin on a linker: ado-ado)
[1] = modified: phospho on T at position -2 from the C-terminal residue
[2] = plain residues with an end cap or a label only (N-terminal biotin on a linker: ado-ado)

Question: With RLQRRRETQV [HPV18-E6_-2P, P06463] as the binder, how does the pKd (ARHGAP21, Q5T5U3; [1]) read?
Answer: The pKd was 4.03.

Question: What about the pKd (DFNB31_1, Q9P202; [1]) of the same binder?
Answer: The pKd was “below the threshold”.

Question: And the pKd (DLG2_3, Q15700; [1])?
Answer: The pKd was 3.88.

Question: And the pKd (FRMPD2_1, Q68DX3; [1])?
Answer: Its pKd is “below the threshold”.

Question: What about the pKd (FRMPD3, Q5JV73; [1]) of the same binder?
Answer: Its pKd is “below the threshold”.

Question: What about the pKd (GIPC2, Q8TF65; [1]) of the same binder?
Answer: The pKd was “below the threshold”.

Question: What about the pKd (GORASP2, Q9H8Y8; [1]) of the same binder?
Answer: Its pKd is 4.13.

Question: And the pKd (GRID2IP_2, A4D2P6; [1])?
Answer: The pKd was “below the threshold”.

Question: And the pKd (GRIP1_7, Q9Y3R0; [1])?
Answer: Its pKd is “below the threshold”.

Question: What about the pKd (HTRA3, P83110; [1]) of the same binder?
Answer: Its pKd is “below the threshold”.

Question: And the pKd (Inadl_1, Q8NI35; [1])?
Answer: Its pKd is “below the threshold”.

Question: And the pKd (Inadl_3, Q8NI35; [1])?
Answer: The pKd was “below the threshold”.

Question: What about the pKd (Inadl_5, Q8NI35; [1]) of the same binder?
Answer: The pKd was “below the threshold”.

Question: What about the pKd (LAP2, Q96RT1; [1]) of the same binder?
Answer: The pKd was “below the threshold”.

Question: What about the pKd (LIN7C, Q9NUP9; [1]) of the same binder?
Answer: Its pKd is 4.07.

Question: What about the pKd (LNX2_3, Q8N448; [1]) of the same binder?
Answer: Its pKd is “below the threshold”.

Question: What about the pKd (MPDZ_5, O75970; [1]) of the same binder?
Answer: The pKd was “below the threshold”.

Question: And the pKd (NHERF2_2, Q15599; [1])?
Answer: The pKd was “below the threshold”.

Question: What about the pKd (PARD3B_1, Q8TEW8; [1]) of the same binder?
Answer: Its pKd is “below the threshold”.

Question: And the pKd (PDZD2_2, O15018; [1])?
Answer: The pKd was “below the threshold”.

Question: What about the pKd (SCRIB_2, Q14160; [1]) of the same binder?
Answer: Its pKd is “below the threshold”.

Question: And the pKd (SNTA1, Q13424; [1])?
Answer: Its pKd is “below the threshold”.

Question: And the pKd (TJP1_2, Q07157; [1])?
Answer: The pKd was “below the threshold”.

Question: What about the pKd (TX1BP3, O14907; [1]) of the same binder?
Answer: The pKd was “below the threshold”.

Question: VYPNAKVELV [PDLIM4_iso2, P50479;P50479-1] was tested. Which pKd (DFNB31_1, Q9P202; [2]) did it give?
Answer: Its pKd is “below the threshold”.

Question: And the pKd (DLG2_3, Q15700; [2])?
Answer: The pKd was “below the threshold”.

Question: What about the pKd (FRMPD2_1, Q68DX3; [2]) of the same binder?
Answer: The pKd was “below the threshold”.

Question: What about the pKd (FRMPD3, Q5JV73; [2]) of the same binder?
Answer: The pKd was “below the threshold”.

Question: And the pKd (GIPC2, Q8TF65; [2])?
Answer: Its pKd is “below the threshold”.

Question: And the pKd (GOPC, Q9HD26)?
Answer: Its pKd is “below the threshold”.

Question: And the pKd (GORASP2, Q9H8Y8; [2])?
Answer: Its pKd is 4.87.

Question: And the pKd (GRID2IP_2, A4D2P6; [2])?
Answer: Its pKd is “below the threshold”.

Question: And the pKd (GRIP1_7, Q9Y3R0; [2])?
Answer: The pKd was “below the threshold”.

Question: And the pKd (Inadl_1, Q8NI35; [2])?
Answer: Its pKd is “below the threshold”.

Question: What about the pKd (Inadl_5, Q8NI35; [2]) of the same binder?
Answer: The pKd was “below the threshold”.

Question: And the pKd (LAP2, Q96RT1; [2])?
Answer: The pKd was “below the threshold”.

Question: And the pKd (LIN7C, Q9NUP9; [2])?
Answer: The pKd was “below the threshold”.

Question: And the pKd (LNX2_3, Q8N448; [2])?
Answer: The pKd was “below the threshold”.

Question: What about the pKd (MPDZ_5, O75970; [2]) of the same binder?
Answer: Its pKd is “below the threshold”.

Question: What about the pKd (NHERF2_2, Q15599; [2]) of the same binder?
Answer: Its pKd is “below the threshold”.

Question: What about the pKd (PDZD2_2, O15018; [2]) of the same binder?
Answer: The pKd was “below the threshold”.

Question: And the pKd (SCRIB_2, Q14160; [2])?
Answer: The pKd was “below the threshold”.

Question: What about the pKd (SNTA1, Q13424; [2]) of the same binder?
Answer: Its pKd is “below the threshold”.

Question: What about the pKd (TX1BP3, O14907; [2]) of the same binder?
Answer: Its pKd is “below the threshold”.

Question: For LPAHHNATRL [SLC34A1, Q06495;Q06495-1], which pKd (ARHGAP21, Q5T5U3; [2]) is on record?
Answer: Its pKd is 3.99.

Question: What about the pKd (DLG2_3, Q15700; [2]) of the same binder?
Answer: Its pKd is “below the threshold”.

Question: What about the pKd (FRMPD2_1, Q68DX3; [2]) of the same binder?
Answer: The pKd was “below the threshold”.

Question: What about the pKd (FRMPD3, Q5JV73; [2]) of the same binder?
Answer: The pKd was “below the threshold”.

Question: And the pKd (GIPC2, Q8TF65; [2])?
Answer: The pKd was “below the threshold”.

Question: What about the pKd (GOPC, Q9HD26) of the same binder?
Answer: Its pKd is 4.53.

Question: And the pKd (GORASP2, Q9H8Y8; [2])?
Answer: Its pKd is “below the threshold”.

Question: And the pKd (GRID2IP_2, A4D2P6; [2])?
Answer: The pKd was 4.13.

Question: And the pKd (GRIP1_7, Q9Y3R0; [2])?
Answer: Its pKd is “below the threshold”.

Question: And the pKd (HTRA3, P83110; [2])?
Answer: Its pKd is “below the threshold”.

Question: What about the pKd (Inadl_1, Q8NI35; [2]) of the same binder?
Answer: The pKd was “below the threshold”.

Question: And the pKd (Inadl_3, Q8NI35; [2])?
Answer: The pKd was “below the threshold”.

Question: What about the pKd (Inadl_5, Q8NI35; [2]) of the same binder?
Answer: Its pKd is “below the threshold”.

Question: What about the pKd (LAP2, Q96RT1; [2]) of the same binder?
Answer: Its pKd is “below the threshold”.

Question: What about the pKd (LIN7C, Q9NUP9; [2]) of the same binder?
Answer: Its pKd is “below the threshold”.

Question: And the pKd (LNX2_3, Q8N448; [2])?
Answer: Its pKd is “below the threshold”.

Question: And the pKd (MPDZ_5, O75970; [2])?
Answer: The pKd was “below the threshold”.

Question: What about the pKd (NHERF2_2, Q15599; [2]) of the same binder?
Answer: Its pKd is 4.83.

Question: What about the pKd (PARD3B_1, Q8TEW8; [2]) of the same binder?
Answer: Its pKd is 4.62.

Question: And the pKd (PDZD2_2, O15018; [2])?
Answer: The pKd was “below the threshold”.

Question: And the pKd (SCRIB_2, Q14160; [2])?
Answer: The pKd was “below the threshold”.

Question: What about the pKd (TJP1_2, Q07157; [2]) of the same binder?
Answer: The pKd was “below the threshold”.

Question: What about the pKd (TX1BP3, O14907; [2]) of the same binder?
Answer: Its pKd is “below the threshold”.
